# Experimental data taken from patent US20110165265A1, “TRAIL VARIANTS FOR TREATING CANCER” (FUNDACIÓ GENÒMICA (CRG), priority 2007, published 2011).
# Biological target: death receptor 5 (DR5) on the cell surface (human) (UniProt O14763)
# Assay: cell-based or functional assay
substance,measurement,value
"wild-type TRAIL (recombinant human soluble TRAIL, amino acids 114-281) (from UniProt P50591 114-281) (ligand)",TRAIL-mediated death of Colo205 cells in the presence of neutralizing anti-DR5 antibody,3 fold
same,incubation time of Colo205 cells with 30 ng/ml ligand needed for a comparable level of pro-caspase-8 processing (Western blot),60 min
